Results published in US20200325220A1 (published 2020).

Columns and labels:
Experiment in all cases: ELISA
Strep-tactin = biological target: Strep-tactin
recombinant human GM-CSF = recombinant human GM-CSF (human, UniProt P04141 18-144)
αPD-1 = biological target: αPD-1
αSLAM = biological target: αSLAM

recombinant human GM-CSF, sequence (P04141 18-144): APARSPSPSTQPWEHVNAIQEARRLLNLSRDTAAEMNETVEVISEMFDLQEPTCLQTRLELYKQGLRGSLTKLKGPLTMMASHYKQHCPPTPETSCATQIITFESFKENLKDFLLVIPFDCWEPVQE

B1: C9 (antibody, V domains shown)
VH: DVQLVESGGGVVRPGVSLRLSCVASGFSFKNYDMAWVRQVPGKGLEWVCGINWNGSLRGYADSVKGRFLISRDHAKDSLYLQMSRLRAEDTALYYCARDPGYNTGRDHPYDLWGQGTMVTVSS
VL: DIQMTQSPSTLSASVGDRVTITCRASQSISSWLAWYQQKPGKAPKLLIYKASSLGSGVPSRFSGSGSGTQFTLTISSLQPDDFATYYCQQYNNYPYTFGQGTKLEIKR
EC50 (Strep-tactin): 0.187 mg/L

B2: C6b (antibody)
heavy: not shown
light: EIVLTQSPGTLSLSPGETAILSCRASQSVSSSLLAWYQQKPGQAPRLLIYGASNRATGIRGRFSGSGSGTDFTLTISRLEPEDFVLYYCQHYGSRVTFGQGTKLEIKRTVAAPSVFIFPPSDEQLKSGTASVVCLLNNFYPREAKVQWKVDNALQSGNSQESVTEQDSKDSTYSLSSTLTLSKADYEKHKVYACEVTHQGLSSPVTKSFNRGEC
EC50 (recombinant human GM-CSF): 0.0324 mg/L | EC50 (αPD-1): ~1350 mg/L | EC50 (αSLAM): 0.0885 mg/L

B3: GCE536 (antibody)
heavy: not shown
light: EIVLTQSPGTLSLSPGETAILSCRASQSVSSSLLAWYQQKPGQAPRLLIYGASNRATGIRGRFSGSGSGTDFTLTISRLEPEDFVLYYCQHYGSRVTFGQGTKLEIKRTVAAPSVFIFPPSDEQLKSGTASVVCLLNNFYPREAKVQWKVDNALQSGNSQESVTEQDSKDSTYSLSSTLTLSKADYEKHKVYACEVTHQGLSSPVTKSFNRGEC
EC50 (recombinant human GM-CSF): 0.0492 mg/L

B4: C5 (antibody)
heavy: not shown
light: EIVLTQSPGTLSLSPGETAILSCRASQSVSSSLLAWYQQKPGQAPRLLIYGASNRATGIRGRFSGSGSGTDFTLTISRLEPEDFVLYYCQHYGSRVTFGQGTKLEIKRTVAAPSVFIFPPSDEQLKSGTASVVCLLNNFYPREAKVQWKVDNALQSGNSQESVTEQDSKDSTYSLSSTLTLSKADYEKHKVYACEVTHQGLSSPVTKSFNRGEC
EC50 (recombinant human GM-CSF): 0.0515 mg/L | EC50 (αPD-1): 0.0585 mg/L | EC50 (αSLAM): ~632 mg/L

B5: C5b (antibody)
heavy: not shown
light: EIVLTQSPGTLSLSPGETAILSCRASQSVSSSLLAWYQQKPGQAPRLLIYGASNRATGIRGRFSGSGSGTDFTLTISRLEPEDFVLYYCQHYGSRVTFGQGTKLEIKRTVAAPSVFIFPPSDEQLKSGTASVVCLLNNFYPREAKVQWKVDNALQSGNSQESVTEQDSKDSTYSLSSTLTLSKADYEKHKVYACEVTHQGLSSPVTKSFNRGEC
EC50 (recombinant human GM-CSF): 0.0355 mg/L | EC50 (αPD-1): 0.0371 mg/L | EC50 (αSLAM): ~397 mg/L

B6: C6 (antibody)
heavy: not shown
light: EIVLTQSPGTLSLSPGETAILSCRASQSVSSSLLAWYQQKPGQAPRLLIYGASNRATGIRGRFSGSGSGTDFTLTISRLEPEDFVLYYCQHYGSRVTFGQGTKLEIKRTVAAPSVFIFPPSDEQLKSGTASVVCLLNNFYPREAKVQWKVDNALQSGNSQESVTEQDSKDSTYSLSSTLTLSKADYEKHKVYACEVTHQGLSSPVTKSFNRGEC
EC50 (αPD-1): ~743 mg/L | EC50 (αSLAM): 0.0958 mg/L
